# In patent publication US8778645B2, “Method for the production of glutaconate” (BASF SE, priority 2009, dated 2014):
# What was measured:
# [1] = target: Glutaconate CoA-transferase from A. fermentans (Acidaminococcus fermentans, UniProt Q59111+Q59112); conditions: Buckel et al. 1981; cited from earlier work
# [2] = substrate: CC(C)(COP(=O)(O)OP(=O)(O)OC[C@H]1O[C@@H](n2cnc3c(N)ncnc32)[C@H](O)[C@@H]1OP(=O)(O)O)[C@@H](O)C(=O)NCCC(=O)NCCSC(=O)[C@H](O)CCC(=O)O; experiment: Substrate kinetics of 2-hydroxyglutaryl-CoA dehydratase with activator; type: biochemical, Clostridium symbiosum; conditions: other: substrate of the dehydratase; pH 7.0
# Method: (§1) 2-Hydroxyglutaryl-CoA dehydratase activity was measured under anoxic conditions at ambient temperature in cuvettes of 0.5 ml total volume containing 50 mM Mops/KOH pH 7.0, 10 mM dithiothreitol, 5 mM MgCl2, 0.1 mM dithionite, 0.4 mM ATP, and […] with activator. After 10 minutes of incubation the reaction was started with 2 mM acetyl-CoA and 2 mM (R)-2-hydroxyglutarate. The increase of absorbance due to the formation of glutaconyl-CoA was followed at 290 nm (ε=2.2 mM^−1 cm^−1) (Kim J, Darley D J, Buckel W, Pierik A J (2008) An allylic ketyl radical intermediate in clostridial amino-acid fermentation. Nature 452:239-242).
# (§2) a) 2-Hydroxyglutaryl-CoA dehydratase from Clostridium symbiosum and activator from Acidaminococcus fermentans
# [3] = substrate: CC(C)(COP(=O)(O)OP(=O)(O)OC[C@H]1O[C@@H](n2cnc3c(N)ncnc32)[C@H](O)[C@@H]1OP(=O)(O)O)[C@@H](O)C(=O)NCCC(=O)NCCSC(=O)/C=C/C=C/C(=O)O; experiment: as above; type: biochemical, Clostridium symbiosum; conditions: other: substrate of the dehydratase; pH 7.0
# Method: as §1, §2
# [4] = substrate: CC(C)(COP(=O)(O)OP(=O)(O)OC[C@H]1O[C@@H](n2cnc3c(N)ncnc32)[C@H](O)[C@@H]1OP(=O)(O)O)[C@@H](O)C(=O)NCCC(=O)NCCSC(=O)C(O)CCCC(=O)O; experiment: as above; type: biochemical, Clostridium symbiosum; conditions: other: substrate of the dehydratase; pH 7.0
# Method: as §1, §2
# [5] = 2-Hydroxyglutaryl-CoA dehydratase activity in recombinant E. coli BL21; type: biochemical, C. symbiosum; conditions: recombinant E. coli BL21, with activator
# Method: as §1
# (§3) The genes were transformed into modified E. coli BL21-CodonPlus (DE3). An overnight anaerobic preculture (100 ml) of a fresh single colony was used to inoculate 1 liter Standard I medium, described above, containing antibiotics (carbenicillin, 100 μg·ml^−1; chloramphenicol, 50 μg·ml^−1) and grown at the same conditions. When the culture reached OD578=0.2, gene expression was induced with isopropyl-1-thio-β-D-galactoside, IPTG (240 mg·liter^−1) and anhydrotetracycline, AHT (200 μg·liter^−1). […]
# (§4) In Table 9 the enzymatic activities are shown, which were measured in the recombinant E. coli strain.
# [6] = Glutaconate CoA-transferase activity in recombinant E. coli BL21; type: biochemical, A. fermentans
# Method: Glutaconate CoA-transferase activity assay was performed aerobically at room temperature. The increase of absorbance was followed at 412 nm, Δε=14 mM^−1 cm^−1.
# The genes were transformed into modified E. coli BL21-CodonPlus (DE3). An overnight anaerobic preculture (100 ml) of a fresh single colony was used to inoculate 1 liter Standard I medium, described above, containing antibiotics (carbenicillin, 100 μg·ml^−1; chloramphenicol, 50 μg·ml^−1) and grown at the same conditions. When the culture reached OD578=0.2, gene expression was induced with isopropyl-1-thio-β-D-galactoside, IPTG (240 mg·liter^−1) and anhydrotetracycline, AHT (200 μg·liter^−1). Cells were harvested 3 hours after induction (at OD578=0.573), washed and suspended in 20 ml of buffer (50 mM MOPS, 5 mM MgCl2 and 2 mM DTT) under anoxic conditions. The induced E. coli cells were lysed by French press and cell debris was removed by ultracentrifugation at 100 000 g at 4° C. for 1 hour.
# as §4
# [7] = 2-Hydroxyglutarate dehydrogenase activity in recombinant E. coli BL21; type: biochemical, A. fermentans
# Method: 2-Hydroxyglutarate dehydrogenase activity was measured at ambient temperature in cuvettes of 0.5 ml total volume containing 0.1 M Tris/HCl pH 8.0, 0.2 mM NADH and 2-hydroxyglutarate dehydrogenase at room temperature. After addition of 1 mM α-ketoglutarate, the absorbance decrease of NADH was monitored at 340 nm (ε=6.3 mM^−1 cm^−1) (Bresser J (1997) (R)-2-Hydroxyglutarat-Dehydrogenase aus Acidaminococcus fermentans. PhD Thesis, Philipps-Universitä t Marburg, Germany; Martins B M, Macedo-Ribeiro S, Bresser J, Buckel W, Messerschmidt A (2005) Structural basis for stereo-specific catalysis in NAD^+-dependent (R)-2-hydroxyglutarate dehydrogenase from Acidaminococcus fermentans. Febs J 272:269-281).
# as §3, §4
molecule,measurement,setting,value
O=C(O)CCCCC(=O)O [adipate],Substrate of the enzyme,[1],acts on
C=CC(=O)O [acrylate],Substrate of the enzyme,[1],acts on
CC(=O)O [acetate],Substrate of the enzyme,[1],acts on
CCC(=O)O [propionate],Substrate of the enzyme,[1],acts on
O=C(O)/C=C/CC(=O)O [(E)-glutaconate],Substrate of the enzyme,[1],acts on
O=C(O)CC[C@@H](O)C(=O)O [(R)-2-hydroxyglutarate],Substrate of the enzyme,[1],acts on
2-Hydroxyglutaryl-CoA dehydratase from Clostridium symbiosum and activator from Acidaminococcus fermentans ([Clostridium] symbiosum) (protein) chain 1: MAKQVSPGVLALRKVVDDVHKEAREAKARGELVGWSSSKFPCELAAAFDLNVMYPENQAAGIAANRYGEMMCQAAEDLGYDNDICGYARISLAYAAGVRVSRKYDAETGEYIIDPATGKPLKDAEGNVVIDEATGKPKKDPKTQTPYLVLDNLLEIEALPDGPEKERRLEAISPIRQMRIPQPDFVLCCNNICNCMTKWYENIARMCNVPLIMIDIPYNNTVEVHDDNVKYVRAQFDKAIKQLEELTGKKFDEKKFEKACSNANRTAQAWLKVCDYLQYKPAPYSGFDLFNHMADVVTARARVEAAEAFELLADDLEETVKKGETTTPFPEKYRVMFEGIPCWPKLPNLFKPLKEHGVNVTAVVYAPAFGFVYNNIDEMARAYYKAPNSVCIEQGVDWREGICRDNKVDGVLVHYNRSCKPWSGYMAEMQRRFTEDLGVPCAGFDGDQADPRNFNAAQYETRVQGLVEAMEANKQAKEAK chain 2: MSINALLDEFKVKAATPKQQLAEYKAQGKKVIGVLPYYAPEELVYAAGMVPMGIWGSNNKTISRAKEYCATFYCTIAQLALEMLLDGTMDQLDGIITPTICDTLRPMSQNFRVAMGDKMAVIFLAQPQNRFEDFGLQFSVDQYTNVKKELEKVAGKEITNEAIQDAIKVYNKSRAARRKFVELASAHCDVITPTKRSAVLKSFFFMEKPEYIEKLEELNAELEKLPVCDWQGTKVVTSGIICDNPKLLEIFEENNIAIAADDVGHESRSFRVDAPEDEADALMALAKQFANMDYDVLLYDPKSTENRRGEFIANMVKESGAQGLVLFMQQFCDPEEMEYPYLKKALNNAGIPHIKLGIDQQMRDFGQASTAIQAFADVLEMQK,Km,[2],52 µM
same,kcat,[2],83 s⁻¹
same,Km,[3],570 µM
same,kcat,[3],1.9 s⁻¹
same,Km,[4],100 µM
same,kcat,[4],17.4 s⁻¹
"2-Hydroxyglutaryl-CoA dehydratase + activator: dehydratase (hgdAB) from C. symbiosum with activator (hgdC) from A. fermentans, expressed in E. coli BL21 (protein, listed as Clostridium symbiosum, Acidaminococcus fermentans) chain 1: MAKQVSPGVLALRKVVDDVHKEAREAKARGELVGWSSSKFPCELAAAFDLNVMYPENQAAGIAANRYGEMMCQAAEDLGYDNDICGYARISLAYAAGVRVSRKYDAETGEYIIDPATGKPLKDAEGNVVIDEATGKPKKDPKTQTPYLVLDNLLEIEALPDGPEKERRLEAISPIRQMRIPQPDFVLCCNNICNCMTKWYENIARMCNVPLIMIDIPYNNTVEVHDDNVKYVRAQFDKAIKQLEELTGKKFDEKKFEKACSNANRTAQAWLKVCDYLQYKPAPYSGFDLFNHMADVVTARARVEAAEAFELLADDLEETVKKGETTTPFPEKYRVMFEGIPCWPKLPNLFKPLKEHGVNVTAVVYAPAFGFVYNNIDEMARAYYKAPNSVCIEQGVDWREGICRDNKVDGVLVHYNRSCKPWSGYMAEMQRRFTEDLGVPCAGFDGDQADPRNFNAAQYETRVQGLVEAMEANKQAKEAK chain 2: MSINALLDEFKVKAATPKQQLAEYKAQGKKVIGVLPYYAPEELVYAAGMVPMGIWGSNNKTISRAKEYCATFYCTIAQLALEMLLDGTMDQLDGIITPTICDTLRPMSQNFRVAMGDKMAVIFLAQPQNRFEDFGLQFSVDQYTNVKKELEKVAGKEITNEAIQDAIKVYNKSRAARRKFVELASAHCDVITPTKRSAVLKSFFFMEKPEYIEKLEELNAELEKLPVCDWQGTKVVTSGIICDNPKLLEIFEENNIAIAADDVGHESRSFRVDAPEDEADALMALAKQFANMDYDVLLYDPKSTENRRGEFIANMVKESGAQGLVLFMQQFCDPEEMEYPYLKKALNNAGIPHIKLGIDQQMRDFGQASTAIQAFADVLEMQK chain 3: MSIYTLGIDVGSTASKCIILKDGKEIVAKSLVAVGTGTSGPARSISEVLENAHMKKEDMAFTLATGYGRNSLEGIADKQMSELSCHAMGASFIWPNVHTVIDIGGQDVKVIHVENGTMTNFQMNDKCAAGTGRFLDVMANILEVKVSDLAELGAKSTKRVAISSTCTVFAESEVISQLSKGTDKIDIIAGIHRSVASRVIGLANRVGIVKDVVMTGGVAQNYGVRGALEEGLGVEIKTSPLAQYNGALGAALYAYKKAAK","Activity, U",[5],0.23 U
same,"Specific activity, U/mg",[5],0.80 U/mg
"Glutaconate CoA-transferase: enzyme from A. fermentans (gctAB) expressed in recombinant E. coli BL21 (protein, Acidaminococcus fermentans, enzyme from A. fermentans (gctAB) expressed in recombinant E. coli BL21) chain 1: LSKVMTLKDAIAKYVHSGDHIALGGFTTDRKPYAAVFEILRQGITDLTGLGGAAGGDWDMLIGNGRVKAYINCYTANSGVTNVSRRFRKWFEAGKLTMEDYSQDVIYMMWHAAALGLPFLPVTLMQGSGLTDEWGISKEVRKTLDKVPDDKFKYIDNPFKPGEKVVAVPVPQVDVAIIHAQQASPDGTVRIWGGKFQDVDIAEAAKYTIVTCEEIISDEEIRRDPTKNDIPGMCVDAVVLAPYGAHPSQCYGLYDYDNPFLKVYDKVSKTQEDFDAFCKEWVFDLKDHDEYLNKLGATRLINLKVVPGLGYHIDMTKEDK chain 2: MADYTNYTNKEMQAVTIAKQIKNGQVVTVGTGLPLIGASVAKRVYAPDCHIIVESGLMDCSPVEVPRSVGDLRFMAHCGCIWPNVRFVGFEINEYLHKANRLIAFIGGAQIDPYGNVNSTSIGDYHHPKTRFTGSGGANGIATYSNTIIMMQHEKRRFMNKIDYVTSPGWIDGPGGRERLGLPGDVGPQLVVTDKGILKFDEKTKRMYLAAYYPTSSPEDVLENTGFDLDVSKAVELEAPDPAVIKLIREEIDPGQAFIQVPTEAK","Activity, U",[6],0.71 U
same,"Specific activity, U/mg",[6],0.25 U/mg
"2-Hydroxyglutarate dehydrogenase: enzyme from A. fermentans (hgdH) expressed in recombinant E. coli BL21 (protein, Acidaminococcus fermentans, enzyme from A. fermentans (hgdH) expressed in recombinant E. coli BL21) MKVLCYGVRDVELPIFEACNKEFGYDIKCVPDYLNTKETAEMAAGFDAVILRGNCFANKQNLDIYKKLGVKYILTRTAGTDHIDKEYAKELGFPMAFVPRYSPNAIAELAVTQAMMLLRHTAYTTSRTAKKNFKVDAFMFSKEVRNCTVGVVGLGRIGRVAAQIFHGMGATVIGEDVFEIKGIEDYCTQVSLDEVLEKSDIITIHAPYIKENGAVVTRDFLKKMKDGAILVNCARGQLVDTEAVIEAVESGKLGGYGCDVLDGEASVFGKDLEGQKLENPLFEKLVDLYPRVLITPHLGSYTDEAVKNMVEVSYQNLKDLAETGDCPNKIK","Activity, U",[7],730 U
same,"Specific activity, U/mg",[7],250 U/mg
